Measurements from US12352767B2, “Method of treating cognitive decline associated with neurological diseases based on a decrease in FLT4 expression or activity” (University of Virginia Patent Foundation, priority 2018, dated 2025).
Entries after “also recorded” stand apart in the source; their conditions may differ.

What was measured:
[1] = tested on: meningeal lymphatic vessels; assay: Meningeal whole-mount immunostaining (LYVE-1/CD31): lymphatic vessel area and diameter, blood vessel coverage
Method: Selective ablation of the meningeal lymphatic vessels was achieved by i.c.m. injection and transcranial photoconversion of Visudyne® (verteporfin for injection, Valeant Ophtalmics). Visudyne was reconstituted following manufacturer instructions and 5 μL was injected i.c.m. following the previously described procedure. […] Each spot was irradiated with a light dose of 50 J/cm^2 at an intensity of 600 mW/cm^2 for a total of 83 s. Controls were injected with the same volume of Visudyne (without the photoconversion step) or sterile saline plus photoconversion (vehicle/photoconversion). The scalp skin was then sutured, the mice were subcutaneously injected with ketoprofen (2 mg/Kg) and allowed to recover on a heating pad until fully awake.
A hydrogel of 1.4% hyaluronic acid and 3% methylcellulose alone (vehicle) or with 200 ng/mL of encapsulated human VEGF-C (PeproTech) or VEGF-C156S (R&D Systems) was prepared as described elsewhere^49. Briefly, lyophilized, sterile methylcellulose (4000 cP, Sigma-Aldrich) and sterile hyaluronic acid (1500-1800 kDa, Sigma-Aldrich) were sequentially dissolved in sterile 0.1 M phosphate buffered saline (PBS) at 4° C. overnight. Lyophilized VEGF-C or VEGF-C156S were resuspended as particulate at 2000 ng/mL in 0.5% sterile methylcellulose in PBS. The particulate solution, or vehicle 0.5% methylcellulose, was mixed into the hydrogel pre-solution at 1:10, and loaded into a syringe for gelation at 37° C. […] The hydrogels were prepared on the day of the experiment and kept warm inside the individual syringes until applied onto the mouse's skull. […] An incision was made in the scalp skin and the skull was thinned at the junction of all sinuses and above the transverse sinus. The shear-thinning properties of the polymers allowed the extrusion of 100 μL of each hydrogel solution from the syringe into the thinned skull surface. The scalp skin was then sutured on top of the solidified hydrogel, the mice were subcutaneously injected with ketoprofen (2 mg/Kg) and allowed to recover on a heating pad until fully awake.
Mice were given a lethal dose of anesthetics by intraperitoneal (i.p.) injection of Euthasol (10% v/v in saline). When needed, CSF was collected from the cisterna magna using a 0.5 mm diameter borosilicate glass pipette with internal filament and immediately stored at −80° C. Mice were then transcardially perfused with ice cold PBS with heparin (10 U/mL). Deep cervical lymph nodes were dissected and drop fixed in 4% paraformaldehyde (PFA) for 12 hours at 4° C. After stripping the skin and muscle from the bone the head was collected and drop fixed in 4% PFA. […] The brains were kept in 4% PFA for additional 24 hours (48 hours in total). […]

[2] = tested on: meningeal lymphatic drainage; assay: Drainage of CSF tracer (OVA-A647) into deep cervical lymph nodes; format: in vivo, mice
Method: (§1) Mice were anaesthetized by intraperitoneal (i.p.) injection of a mixed solution of ketamine (100 mg/Kg) and xylazine (10 mg/Kg) in saline. The skin of the neck was shaved and cleaned with iodine and 70% ethanol, ophthalmic solution placed on the eyes to prevent drying and the mouse's head was secured in a stereotaxic frame. After making a skin incision, the muscle layers were retracted and the cisterna magna exposed. Using a Hamilton syringe (coupled to a 33-gauge needle), the volume of the desired tracer solution was injected into the CSF-filled cisterna magna compartment. For brain CSF influx and lymphatic drainage experiments, 2 or 5 μL of Alexa Fluor® 594 or 647 conjugated OVA (Thermo Fisher Scientific), at 0.5 mg/mL in artificial CSF (#597316, Harvard Apparatus U.K.), were injected at a rate of 2.5 μL/min. After injecting, the syringe was left in place for additional 2 min to prevent back-flow of CSF.

brain parenchyma = assay: Brain perfusion/influx by CSF tracer OVA-A647 (brain sections); format: in vivo, mice; conditions: old mice
Method: as §1

[3] = tested on: meningeal lymphatic vessels; conditions: recombinant VEGF-C, previously shown (ref. 4); cited from earlier work
VEGFR3 = VEGFR3 (Homo sapiens, UniProt P35916); conditions: VEGFR3 vs VEGFR2 (refs. 34, 36); cited from earlier work
Sequence of VEGFR3 (P35916 25-1363, species assumed): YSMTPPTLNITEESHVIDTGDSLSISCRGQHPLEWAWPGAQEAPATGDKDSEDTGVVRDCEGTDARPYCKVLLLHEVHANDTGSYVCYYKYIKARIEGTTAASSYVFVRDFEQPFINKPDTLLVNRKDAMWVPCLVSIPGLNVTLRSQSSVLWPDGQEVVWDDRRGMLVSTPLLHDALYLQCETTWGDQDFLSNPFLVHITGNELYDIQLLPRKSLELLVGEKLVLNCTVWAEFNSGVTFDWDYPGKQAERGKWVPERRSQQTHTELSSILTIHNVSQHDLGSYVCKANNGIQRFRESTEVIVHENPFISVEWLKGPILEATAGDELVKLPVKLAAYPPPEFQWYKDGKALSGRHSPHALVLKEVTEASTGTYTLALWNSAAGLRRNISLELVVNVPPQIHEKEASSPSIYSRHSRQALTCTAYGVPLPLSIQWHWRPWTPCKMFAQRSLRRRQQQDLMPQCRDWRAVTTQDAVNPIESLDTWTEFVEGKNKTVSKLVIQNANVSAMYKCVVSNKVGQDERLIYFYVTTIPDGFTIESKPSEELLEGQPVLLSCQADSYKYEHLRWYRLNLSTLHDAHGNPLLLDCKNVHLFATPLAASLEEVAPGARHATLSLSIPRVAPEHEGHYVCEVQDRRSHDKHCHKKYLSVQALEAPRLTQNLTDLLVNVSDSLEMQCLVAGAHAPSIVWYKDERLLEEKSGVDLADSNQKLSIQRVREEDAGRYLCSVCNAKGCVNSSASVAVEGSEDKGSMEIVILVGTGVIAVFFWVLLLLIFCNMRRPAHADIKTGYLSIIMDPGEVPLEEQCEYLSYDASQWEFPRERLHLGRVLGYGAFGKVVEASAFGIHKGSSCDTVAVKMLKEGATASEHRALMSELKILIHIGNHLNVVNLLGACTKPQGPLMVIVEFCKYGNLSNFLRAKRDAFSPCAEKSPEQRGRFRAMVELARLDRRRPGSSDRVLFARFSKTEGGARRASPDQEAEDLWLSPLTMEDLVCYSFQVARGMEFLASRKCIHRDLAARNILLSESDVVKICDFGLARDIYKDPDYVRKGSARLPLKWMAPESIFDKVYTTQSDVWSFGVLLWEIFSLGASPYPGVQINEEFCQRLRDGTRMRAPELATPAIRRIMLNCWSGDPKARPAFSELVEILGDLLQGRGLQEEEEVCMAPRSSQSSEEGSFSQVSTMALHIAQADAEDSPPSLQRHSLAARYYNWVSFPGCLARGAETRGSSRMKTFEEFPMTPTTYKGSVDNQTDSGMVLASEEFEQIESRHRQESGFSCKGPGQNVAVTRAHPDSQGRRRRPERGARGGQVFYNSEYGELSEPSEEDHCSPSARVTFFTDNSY

B1: VEGF-C: recombinant human VEGF-C (PeproTech) encapsulated in hyaluronic acid/methylcellulose hydrogel for transcranial delivery (protein, UniProt P49767 112-227, looked up)
Vascular endothelial growth …: AHYNTEILKSIDNEWRKTQCMPREVCIDVGKEFGVATNTFFKPPCVSVYRCGGCCNSEGLQCMNTSTSYLSKTLFEITVPLSQGPKPVTISFANHTSCRCMSKLDVYRQVHSIIRR
modifications: in hyaluronic acid/methylcellulose hydrogel
notes: recombinant human VEGF-C (PeproTech) encapsulated in hyaluronic acid/methylcellulose hydrogel for transcranial delivery
[1]; young/adult (3 months) and old (20-24 months) mice, hydrogel VEGF-C 200 ng/mL transcranial, 4 weeks, vs vehicle
  meningeal lymphatic vessel diameter (superior sagittal sinus): increased diameter; also recorded: significant increase
[2]; old mice, transcranial hydrogel VEGF-C vs vehicle
  meningeal lymphatic function (OVA-A647 drainage into dCLNs): significant increase; also recorded: increased drainage
[2]; young-adult mice, transcranial hydrogel VEGF-C
  meningeal lymphatic function (OVA-A647 drainage into dCLNs): did not respond
Brain parenchyma; transcranial hydrogel VEGF-C
  brain perfusion by CSF macromolecules (OVA-A647 influx): enhanced brain perfusion; also recorded: significantly increased
[3]
  diameter of meningeal lymphatic vessels: increases the diameter

B2: VEGF-C156S: mutant VEGF-C protein that binds specifically to VEGFR3, delivered in hydrogel transcranially (protein, UniProt P49767 112-227, looked up, variant C156S)
Vascular endothelial growth …: AHYNTEILKSIDNEWRKTQCMPREVCIDVGKEFGVATNTFFKPPSVSVYRCGGCCNSEGLQCMNTSTSYLSKTLFEITVPLSQGPKPVTISFANHTSCRCMSKLDVYRQVHSIIRR
modifications: delivered in hydrogel
[1]; old mice, hydrogel VEGF-C156S 200 ng/mL transcranial vs vehicle
  meningeal lymphatic diameter (LYVE-1+ vessels, superior sagittal sinus): significant increase; also recorded: increased diameter
[2]; old mice, transcranial VEGF-C156S vs vehicle
  drainage of tracer from the CSF (OVA-A647 area fraction in dCLNs): significant increase
Brain parenchyma; transcranial VEGF-C156S
  paravascular influx of tracer into the brain (OVA-A647 area fraction): significant increase
VEGFR3
  receptor binding specificity: binds specifically to VEGFR3 and spares its effects on VEGFR2
